How the values were obtained:
[1] = molecular target: HLA-DR4 loaded with CLIP peptide (UniProt P04233); test: SPR
[2] = molecular target: HLA-DR4 (DRA*0101/DRB1*0401) with the linked p24 HIV Gag peptide 164-183 (HLA-DR4^HIV) (human | HIV); test: SPR
[3] = molecular target: T1, yeast-displayed FGL1^FD E250A/E251A/D252A (human, UniProt Q08830 58-312, E250A | E251A | D252A); test: flow cytometry on cells
T1 sequence (looked up): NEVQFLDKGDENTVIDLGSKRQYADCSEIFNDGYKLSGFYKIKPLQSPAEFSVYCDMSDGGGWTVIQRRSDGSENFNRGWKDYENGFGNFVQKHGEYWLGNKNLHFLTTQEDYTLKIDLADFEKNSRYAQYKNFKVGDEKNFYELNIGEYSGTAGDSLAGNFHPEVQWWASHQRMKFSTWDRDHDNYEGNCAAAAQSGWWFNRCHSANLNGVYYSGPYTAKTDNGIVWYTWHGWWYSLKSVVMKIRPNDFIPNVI

[4] = molecular target: T2, yeast-displayed FGL1^FD Y244A/E245A (human, UniProt Q08830 58-312, Y244A | E245A); test: flow cytometry on cells
T2 sequence (looked up): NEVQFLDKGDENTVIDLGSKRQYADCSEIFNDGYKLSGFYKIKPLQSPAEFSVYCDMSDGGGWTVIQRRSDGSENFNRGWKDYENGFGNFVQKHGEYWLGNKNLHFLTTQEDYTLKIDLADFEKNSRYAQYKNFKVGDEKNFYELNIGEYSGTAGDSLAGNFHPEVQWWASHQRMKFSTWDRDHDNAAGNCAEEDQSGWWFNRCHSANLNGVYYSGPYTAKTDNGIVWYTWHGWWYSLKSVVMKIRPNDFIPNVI

[5] = molecular target: the molecule itself; test: SEC-MALS

Sequence of HLA-DR4 loaded with CLIP peptide (P04233 whole entry, looked up, tested part not stated): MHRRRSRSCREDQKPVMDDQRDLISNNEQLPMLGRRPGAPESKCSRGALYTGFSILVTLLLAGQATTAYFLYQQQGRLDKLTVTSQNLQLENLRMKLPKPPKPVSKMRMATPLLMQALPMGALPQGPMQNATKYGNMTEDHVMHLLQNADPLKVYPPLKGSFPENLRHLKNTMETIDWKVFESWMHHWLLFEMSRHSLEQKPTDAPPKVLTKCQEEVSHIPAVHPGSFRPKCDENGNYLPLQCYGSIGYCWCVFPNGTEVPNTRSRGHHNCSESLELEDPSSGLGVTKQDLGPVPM

With “hLAG3* (human LAG3 extracellular domain with the M171I mutation) (from UniProt P18627 23-450) (domain or fragment)” the Kd [1] was 2.45 µM and the Kd [2] was 5.2 µM.

B1: hLAG3* (human LAG3 extracellular domain with the M171I mutation) (domain or fragment, UniProt P18627 23-450, looked up)
chain: LQPGAEVPVVWAQEGAPAQLPCSPTIPLQDLSLLRRAGVTWQHQPDSGPPAAAPGHPLAPGPHPAAPSSWGPRPRRYTVLSVGPGGLRSGRLPLQPRVQLDERGRQRGDFSLWLRPARRADAGEYRAAVHLRDRALSCRLRLRLGQASITASPPGSLRASDWVILNCSFSRPDRPASVHWFRNRGQGRVPVRESPHHHLAESFLFLPQVSPMDSGPWGCILTYRDGFNVSIMYNLTVLGLEPPTPLTVYAGAGSRVGLPCRLPAGVGTRSFLTAKWTPPGGGPDLLVTGDNGDFTLRLEDVSQAQAGTYTCHIHLQEQQLNATVTLAIITVTPKSFGSPGSLGKLLCEVTPVSGQERFVWSSLDTPSQRSFSGPWLEAQEAQLLSQPWQCQLYQGERLLGAAVYFTELSSPGAQRSGRAPGALPAGHL
modifications: biotin on the BAP tag (BirA ligase) in binding experiments
With B1 the “reduction of binding relative to wild-type FGL1^FD” value [3] was 80% and the “reduction of binding relative to wild-type FGL1^FD” value [4] was 75%.

B2: murine LAG3 extracellular domain (mLAG3, residues 23-442) (domain or fragment, mouse, UniProt Q61790 23-442, looked up)
chain: SGPGKELPVVWAQEGAPVHLPCSLKSPNLDPNFLRRGGVIWQHQPDSGQPTPIPALDLHQGMPSPRQPAPGRYTVLSVAPGGLRSGRQPLHPHVQLEERGLQRGDFSLWLRPALRTDAGEYHATVRLPNRALSCSLRLRVGQASMIASPSGVLKLSDWVLLNCSFSRPDRPVSVHWFQGQNRVPVYNSPRHFLAETFLLLPQVSPLDSGTWGCVLTYRDGFNVSITYNLKVLGLEPVAPLTVYAAEGSRVELPCHLPPGVGTPSLLIAKWTPPGGGPELPVAGKSGNFTLHLEAVGLAQAGTYTCSIHLQGQQLNATVTLAVITVTPKSFGLPGSRGKLLCEVTPASGKERFVWRPLNNLSRSCPGPVLEIQEARLLAERWQCQLYEGQRLLGATVYAAESSSGAHSARRISGDLKGGHL
With B2 the “stoichiometry N” value [5] was 2.
